Test results reported in PMC11580989.

Molecular target: Rad52^ΔN* (Saccharomyces cerevisiae)
Test: mass photometry

stoichiometry N: 1
Substance: Saccharomyces cerevisiae Rad51 (from UniProt P25454 1-400) (natural protein)
